Laboratory results from PMC2175261 (The Journal of Cell Biology, 2000).
Where two headings read alike, the source gives them in different places.

Legend:
pull-down [1] = target: the molecule itself; assay: pull-down
pull-down [2] = target: the molecule itself; assay: pull-down; remark: listed apart in the source

B1: C2B domain of synaptotagmin Ib (residues 248–421) (domain or fragment, rat, UniProt P21707 248-421, looked up)
chain: NTVDFGHVTEEWRDLQSAEKEEQEKLGDICFSLRYVPTAGKLTVVILEAKNLKKMDVGGLSDPYVKIHLMQNGKRLKKKKTTIKKNTLNPYYNESFSFEVPFEQIQKVQVVVTVLDYDKIGKNDAIGKVFVGYNSTGAELRHWSDMLANPRRPIAQWHTLQVEEEVDAMLAVKK
Q: Does B1 bind (pull-down [1])?
A: Result: binds

B2: cytoplasmic domain of synaptotagmin Ib, D230,232N mutant (domain or fragment, rat, UniProt P21707 96-421, looked up)
chain: GGKNAINMKDVKDLGKTMKDQALKDDDAETGLTDGEEKEEPKEEEKLGKLQYSLDYDFQNNQLLVGIIQAAELPALDMGGTSDPYVKVFLLPDKKKKFETKVHRKTLNPVFNEQFTFKVPYSELGGKTLVMAVYNFNRFSKHDIIGEFKVPMNTVDFGHVTEEWRDLQSAEKEEQEKLGDICFSLRYVPTAGKLTVVILEAKNLKKMDVGGLSDPYVKIHLMQNGKRLKKKKTTIKKNTLNPYYNESFSFEVPFEQIQKVQVVVTVLDYDKIGKNDAIGKVFVGYNSTGAELRHWSDMLANPRRPIAQWHTLQVEEEVDAMLAVKK
Q: Does B2 bind (pull-down [2])?
A: Result: binds
